Measured values reported in paper PMC8706911, “Insights into the Neutralization and DNA Binding of Toxin–Antitoxin System ParESO-CopASO by Structure-Function Studies” (Microorganisms, 2021).

B1: CopASO (SO_1445), antitoxin of the ParESO-CopASO type II toxin-antitoxin system of prophage CP4So (natural protein, Shewanella oneidensis, UniProt Q8EGZ2 1-102, looked up)
chain: MSTIKPVSVKLDADIKARVEHLAETRKRSSHWMMREAIREYVEREEKREALQQEALRAWEEHQTSGLHVTGDEVVSWLESWGSENEQAALHATNSLHCHCIT
modifications: selenomethionine-substituted in the crystal
notes: CopASO (SO_1445), antitoxin of prophage CP4So, Shewanella oneidensis; called full-length in the complex; 93 residues modelled in CopASO (I), 77 in CopASO (II); also called CopASO (I); CopASO (II)

Experiments:
[1] = system: CopASO (Shewanella oneidensis (prophage CP4So)); experiment: ITC; conditions: ITC: 20 mM Tris pH 8.0, 100 mM NaCl, 5% (v/v) glycerol, 20 °C; 100-400 uM DNA injected into 10-100 uM protein; one-site model
[2] = system: CopASO;ParESO (in purified ParESO-CopASO complex) (Shewanella oneidensis (prophage CP4So);Shewanella oneidensis (prophage CP4So)); experiment: ITC; conditions: ITC: 20 mM Tris pH 8.0, 100 mM NaCl, 5% (v/v) glycerol, 20 °C; 100-400 uM DNA injected into 10-100 uM protein; one-site model
[3] = molecular target: the molecule itself; experiment: crystal structure; Se-Met ParESO-CopASO complex, crystallised in 20% PEG3350, 0.2 M tri-sodium citrate at 20 °C; SAD, 3.80 Å
[4] = molecular target: B1; experiment: as above; conditions: both partners purified

Molecule “TAAGGTATTACCTAGTAGTACTAAG (double strand) [25 bp copASO-parESO promoter duplex]” has a Kd [1] of 16 nM and a Kd [2] of 660 nM.

For B1, the “stoichiometry N” value [3] was 2.

B2: ParESO (SO_1444), toxin of the ParESO-CopASO type II toxin-antitoxin system of prophage CP4So (natural protein, Shewanella oneidensis)
chain: MPQIVFTATALRDLERLREFLRSKNPPAAQRAASAIINTIRKLESYPDIGRPIDDNDFSFRELLIDFGDTGYLAMYQYDGGERLTVLCIRHQKEAGY
modifications: selenomethionine-substituted in the crystal
notes: also called ParESO (I); ParESO (II)
B2: binds [4].
